Results taken from US8470576B2, “Group of novel enantioselective microbial nitrile hydratases with broad substrate specificity” (B.R.A.I.N. AG, priority 2006, dated 2013).

Key:
[1] = Determination of the isoelectric point (Phast-System); format: physicochemical; settings: purified enzyme
Description: The IEP of the purified enzyme according to Seq. ID No. 2 and 4 was determined to be 3.5-3.6 using the Phast-System (Amersham Pharmacia).

[2] = Enantioselectivity of NHases towards rac-mandelonitrile (washed cells, chiral HPLC); format: biochemical; settings: for enantiopreference: (R/S)-mandelonitrile; for Eapp-value: kinetic resolution of (R/S)-mandelonitrile; for Eapp-value heterologously expressed / Eapp-value homologously expressed: rac-mandelonitrile; for Eapp-value heterologously expressed: heterologously expressed NHase; for Eapp-value homologously expressed: homologously expressed NHase
Description: For the determination of enantioselectivity towards rac-mandelonitrile and 2-phenylpropionitrile 40-50 mg of washed cells were resuspended in 1 ml of 50 mM Tris/HCl pH 7.5. 100 μl of cell suspension were mixed with 800 μl 50 mM Tris/HCl pH 7.5 and incubated at 30° C. in a thermomixer at 1000 rpm. The biotransformation was started by addition of 100 μl of 10 mM rac-mandelonitrile or rac-2-phenylpropionitrile in 50 mM Tris/HCl pH 7.5. The reaction was stopped by addition of 100 μl 1M HCl after 1, 5 or 10 min. Cells were removed by centrifugation and the supernatant analysed by chiral HPLC for the presence of mandeloamide and phenylpropionamide, respectively. rac-Mandeloamide was analysed on a HPLC comprising a Surveyor 4 channel Pump, AutoSampler and UVNIS detector at 210 nm from Thermo Finnigan on a Nucleodex β-OH column (Macherey & Nagel) using 50% methanol/water:water (40:60) as mobile phase at a flow rate of 0.7 ml/min. The apparent enantiomeric ratio (Eapp) of the conversion of mandelonitrile was calculated according to Straathof and Jongejan for […] (see example 9). In case of 2-phenylpropionamide, the samples were lyophilized and resuspended in n-hexane: 2-propanol (80:20). Prior to injection, the samples were additionally dried with sodium sulfate and were centrifugated at 16,000 g for 5 min. The supernatants were analyzed using a Chiracel OD column (Daicel) on a Spectra System (AS3000, P2000, UV2000 at 210 nm) from Thermo Separation Products with n-hexane: 2-propanol (80:20) as mobile phase at a flow rate of 0.5 ml/min. The enantiomeric ratio (E) of the conversion of PPN was calculated according to Chen et al. […]

[3] = Dependence of NHase activity on the pH; format: biochemical
Description: (§1) Cell free crude extracts from Raoultella terrigena (77.1) were incubated for 5 min at 30° C. and the indicated pH-values. The reaction was subsequently started by addition of substrate (1 mM PPN). The activity was determined as described in example 4. Buffers used: McIlvaine buffer: ˜0.1 M citrate/phosphate-buffer; Tris-buffer: 0.1 M Tris/HCl-buffer
as §1, with “E. coli BL21 (DE3) pET22-77.1a/pET26—77.1b” for “Raoultella terrigena (77.1)”
Cell free crude extracts from Klebsiella sp. (77.1) and E. coli BL21 (DE3) pET22—77.1a/pET26—77.1b were incubated for 5 min at 30° C. and the indicated pH-values. The reaction was subsequently started by addition of substrate (1 mM PPN). The activity was determined as described in example 4. Buffers used: McIlvaine buffer: ˜0.1 M citrate/phosphate-buffer
(§2) Lyophilized cells were incubated for 5 min at the indicated pH-values. The reaction was subsequently started by addition of substrate (1 mM PPN). The activity was determined as described in example 4. Buffers used: McIlvaine buffer: ˜0.1 M citrate/phosphate-buffer; Tris-buffer: 0.1 M Tris/HCl-buffer
as §2, with “Cell free crude extracts” for “Lyophilized cells”
If not otherwise indicated enzyme samples were prepared as follows: the cells from 1 ml of the culture were washed with 50 mM Tris/HCl pH 7.5 and resuspended in 750 μl of the same buffer. This suspension was incubated at 30° C. in a thermomixer at 1000 rpm. The biotransformation was started by addition of the substrate 2-phenylpropionitrile (PPN) in 50 mM Tris/HCl pH 7.5. The concentration of the substrate was 1 mM, if not otherwise stated. The reaction was stopped after 1 min, 5 min or 10 min as indicated by addition of 1 M HCl. Cells were removed by centrifugation and the supernatant analysed by HPLC for the presence of the corresponding amide. The HPLC analysis was carried out on a system comprising a Surveyor 4 channel Pump, AutoSampler and UVNIS detector at 210 nm from Thermo Finnigan on a Grom-Sil 1200DS-3 cp 3 μm (125×4.6 mm) reverse phase column. As mobile phase, acetonitrile and 0.3% H3PO4 were used in a ratio of 50:50 at a flow of 0.7 ml/min, respectively.
The pH-optimum for the enzyme according to Seq ID No. 2 and 4 (Raoultella terrigena, 77.1) has its pH-optimum at pH 6.75 (FIG. 27).
The NHase according to Seq ID. No. 18 and 20 (Klebsiella oxytoca, 38.1.2) was determined to be between pH 7.0-pH 7.5 (FIG. 28 and FIG. 29). […] At a pH 10, the residual activity of the enzyme is about 65-75%.

B1: NHase Seq ID No. 2 and 4: nitrile hydratase of Raoultella terrigena strain 77.1, α-subunit SEQ ID NO 2, β-subunit SEQ ID NO 4 (protein)
alpha: MSHKHDHDHTEPPVDIELRVRALESLLQEKGLIDPAALDELIDTYEHKVGPRNGAQVVARAWSDPEYKRRLMENATAAISELGFSGIQGEDMLVVENTPDVHNVTVCTLCSCYPWPVLGLPPVWYKSAPYRSRIVIDPRGVLAEFGLHIPESKEIRVWDSSAELRYLVLPERPAGTDGWSEAQLSELISRDSMIGTGVVTAP
beta: MNGIHDLGGMHGFGPIPTEENEPYFHHEWERRVFPMFASLFVGVHFNVDEFRHSIECMPPADYLQSSYYEHWLHAFETLLLAKGVITVDELWGGAKPTLCKPGTPVLTQDMVSMVVSTGGSARVSHDVAPRFRVGDRVRTKNFNPTTHTRLPRYARDKVGRIEIAHGVFITPDTAAHGLGEHPQHVYSVSFTAQELWGEPRPDNVFIDLWDDYLEEA
modifications: Raoultella terrigena, strain 77.1
- IEP [1]: 3.5-3.6
- enantiopreference [2]: (S)
- Eapp-value [2]: 20
- Eapp-value heterologously expressed [2]: 20
- Eapp-value homologously expressed [2]: 19
- pH-optimum ([3]; 1 mM PPN): 6.75
- residual activity at pH 4.0 ([3]; homologously produced enzyme): about 6%
- residual activity at pH 10 [3]: about 27%
- activity at pH<6.0 ([3]; recombinantly produced enzyme): no activity

B2: NHase Seq ID No. 18 and 20: nitrile hydratase of Klebsiella oxytoca strain 38.1.2, α-subunit SEQ ID NO 18, β-subunit SEQ ID NO 20 (protein)
alpha: MSHKHDHDHTQPPVDIELRVRALESLLQEKGLIDPAALDELIDTYEHKVGPRNGAQVVARAWSDPEYKRRLMENATAAIAELGFSGIQGEDMLVVENTPDVHNVTVCTLCSCYPWPVLGLPPVWYKSAPYRSRIVIDPRGVLAEFGLHIPENKEIRVWDSSAELRYLVLPERPAGTEGWSEAQLSELITRDSMIGTGVVTAP
beta: MNGIHDLGGMHGLGPIPTEENEPYFHHEWERRVFPLFASLFVGGHFNVDEFRHAIERMAPTEYLQSSYYEHWLHAFETLLLAKGVITVEELWGGAKPAPCKPGTPVLTQEMVSMVVSTGGSARVSHDVAPRFRVGDWVRTKNFNPTTHTRLPRYARDKVGRIEIAHGVFITPDTAAHGLGEHPQHVYSVSFTAQALWGEPRPDKVFIDLWDDYLEEA
modifications: Klebsiella oxytoca, strain 38.1.2
- enantiopreference [2]: (S)
- Eapp-value [2]: 19
- Eapp-value heterologously expressed [2]: 19
- Eapp-value homologously expressed [2]: 17
- activity at pH-value<6 ([3]; crude cell extracts): inactivated
- residual activity at pH 3.0 ([3]; lyophilized cells): about 10%
- residual activity at pH 10 [3]: 65-75%
